Laboratory results reported in US20180282403A1, “AGENTS FOR REDUCING THE ACTIVITY OF GDF15” (GENAGON THERAPEUTICS AB, priority 2015, published 2018).
Values belong to the molecule of their own block, whether it stands above or below them.

T1: GDF15 (Homo sapiens, UniProt Q99988)
T1 construct: purchased Abcam
T1 sequence (Q99988 197-308 limits assumed): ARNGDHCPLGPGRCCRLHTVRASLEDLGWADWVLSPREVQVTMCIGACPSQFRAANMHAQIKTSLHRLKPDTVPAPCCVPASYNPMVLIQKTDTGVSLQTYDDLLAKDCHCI

T2: QRFPR (Homo sapiens, UniProt Q96P65)
T2 construct: endogenous in cells
T2 sequence (Q96P65 1-431): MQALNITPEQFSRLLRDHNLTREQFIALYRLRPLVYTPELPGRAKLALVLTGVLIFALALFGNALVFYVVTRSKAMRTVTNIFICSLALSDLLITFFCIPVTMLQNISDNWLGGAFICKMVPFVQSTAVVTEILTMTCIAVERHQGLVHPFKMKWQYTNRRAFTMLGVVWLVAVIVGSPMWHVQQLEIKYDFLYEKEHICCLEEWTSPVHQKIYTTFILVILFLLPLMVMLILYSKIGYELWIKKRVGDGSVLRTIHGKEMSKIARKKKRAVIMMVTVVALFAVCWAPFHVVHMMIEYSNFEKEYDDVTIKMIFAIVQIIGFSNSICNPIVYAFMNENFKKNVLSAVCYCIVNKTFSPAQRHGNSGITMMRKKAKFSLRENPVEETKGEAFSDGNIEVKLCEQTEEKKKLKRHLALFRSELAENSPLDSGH

T3: Growth and differentiation factor 15 (GDF15) (UniProt Q99988 197-308, limits assumed)
T3 construct: Purchased GDF15 added to cells, pull-downs, peptide arrays and ELISA; also called MIC1
T3 sequence (looked up): T1 sequence (Q99988 197-308 limits assumed)

T4: Cleft Lip and Palate Transmembrane protein 1 (CLPTM1) (human, UniProt O96005 2-669)
T4 construct: Endogenous receptor of NK-92 cells, CD14+ cells and human tissues
T4 sequence: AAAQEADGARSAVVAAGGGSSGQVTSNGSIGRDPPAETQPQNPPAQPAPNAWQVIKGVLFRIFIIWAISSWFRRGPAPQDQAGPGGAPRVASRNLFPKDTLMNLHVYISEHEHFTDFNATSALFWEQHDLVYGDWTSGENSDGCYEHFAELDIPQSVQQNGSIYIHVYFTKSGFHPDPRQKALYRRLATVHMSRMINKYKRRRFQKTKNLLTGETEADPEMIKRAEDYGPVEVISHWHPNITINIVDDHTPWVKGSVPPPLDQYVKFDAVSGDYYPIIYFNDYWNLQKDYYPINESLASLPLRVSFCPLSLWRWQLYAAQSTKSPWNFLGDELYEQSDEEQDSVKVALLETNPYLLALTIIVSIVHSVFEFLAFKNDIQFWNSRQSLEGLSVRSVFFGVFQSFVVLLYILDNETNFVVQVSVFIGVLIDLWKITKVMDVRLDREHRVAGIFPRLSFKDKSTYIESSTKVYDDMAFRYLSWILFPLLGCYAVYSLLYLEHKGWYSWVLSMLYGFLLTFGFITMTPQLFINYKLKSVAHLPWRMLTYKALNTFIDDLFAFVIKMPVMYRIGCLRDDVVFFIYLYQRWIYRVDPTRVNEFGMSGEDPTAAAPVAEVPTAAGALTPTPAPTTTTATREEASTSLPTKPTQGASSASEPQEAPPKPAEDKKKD

B1: AP1 (control protein): AAAQEADGARSAVVAAGGGSSGQVTSNGSIGRDPPAETQPQNPPAQPAPNAGGGGSGGGGSGGGGS-Fc mouse IgG1 (Fc fusion, not shown: a dimerising Fc or GST)
chain: AAAQEADGARSAVVAAGGGSSGQVTSNGSIGRDPPAETQPQNPPAQPAPNAGGGGSGGGGSGGGGS
notes: also called control polypeptide
B2: endogenous GDF15 (in MCF-7 cells treated with Sulindac sulphide and in human tumour tissue arrays) (ligand, UniProt Q99988 197-308, looked up)
chain: T1 sequence (Q99988 197-308 limits assumed)
notes: Detected in complex with receptors by in situ PLA
B3: pyroglutamylated RFamide Peptide Receptor (QRFPR) (receptor)
chain: T2 sequence (Q96P65 1-431)
notes: Endogenous receptor of MCF-7 / U2OS cells and human tissues; also called GPR103; orexigenic neuropeptide QRFP receptor

Tests used:
GDF15 = target: T1, GDF15; experiment: GST-pulldowns of GDF15 with GST-fusion QRFPR and CLPTM1 fragments; type: binding; conditions: equal amounts of GST-fusion protein and GDF15, 4 hrs at 4° C., extensive washes incl. high salt; FIG. 8B
Method: We then assembled the GDF15 binding motifs from QRFPR and CLPTM1 using synthetic hybridized oligonucleotides corresponding to the motifs from either extracellular domain 3, 4 (QRFPR) or CLPTM1. The oligonucleotides were inserted in a pGEX4T1 backbone, expressed in BL21 DE3pLys bacteria and purified. The correct sequences were confirmed by Sanger sequencing.
We then incubated the purified GST-fusion proteins with equal amounts of GDF15 and subjected the analytes to extensive washes including high salt buffers.
In short, selected fragments of the receptors were constructed from synthetic oligomers (ultramers, IDT technologies), the flanking ends digested by restriction enzymes, and inserted in a pGEX 4T-1 vector (Pharmacia Biotech). The constructs were cloned in a DH5 a library efficiency bacteria (Invitrogen). The correct clones were identified by analytical restriction digest run on a 2% agarose gel, and validated by Sanger sequencing at the Uppsala sequencing centre.
The validated clones were used to transform BL21pLYs bacteria. […]
The material was denatured by boiling in SDS loading dye supplemented with DDT for 5 min, then run on a 12% acrylamide gel (120 V for 70 min) and analysed by ECL and CCD camera (Biorad). […]

QRFPR [1] = target: T2, QRFPR; experiment: ACTRIIB assay: in situ PLA detection of ACTRIIB at the cell surface after QRFPR agonist P518; type: cell-based; conditions: P518 + peptide in 125 molar excess, FIG. 10D-F
Excerpt: (§1) A-C) In situ detection of QRFPR at the cell surface. A) Negative control cells with no added GDF15. B) Cells after exposure to GDF15. C) Cells after exposure to GDF15+ synthetic peptide GEKEYDDVTIK derived from extracellular domain 4 of QRFPR. […] D-F) In situ PLA detection of ACTRIIB at the cell surface. D) Control cells with no added P518. E) Cells after exposure to P518. F) Cells after exposure to P518+ synthetic peptide GEKEYDDVTIK derived from extracellular domain 4 of QRFPR in 125 molar excess. The ability of P518 to increase the level of ACTRIIB at the cell surface was not affected by the peptide.
The effect of the QRFPR agonist p518 was measured. In short, p518/QRFP-26 was purchased from Phoenix Peptides, CA and processed according to the manufacturer's instructions. Cells were serum-starved prior to P518 stimulation overnight.
P518 was mixed with either PBS or QRFPR receptor fragment dissolved in PBS prior to stimulation of cells.

QRFPR [2] = experiment: In situ PLA detection of QRFPR at the cell surface in U2OS osteosarcoma cells; type: cell-based; conditions: U2OS osteosarcoma cells; GDF15 + peptide; FIG. 9E
Excerpt: A-D) In situ PLA detection of the Rab11-QRFPR complex following exposure of MCF7 cells to GDF15. A) +Ctrl peptide. B) +QRFPR extracellular N-terminal peptide. C-D) +QRFPR extracellular loop3 (domain 4) peptide. The level of the Rab11-QRFPR complex is reduced by the peptide from extracellular loop3 of QRFPR. E) in situ PLA detection of QRFPR in U2OS osteosarcoma cells.
(§2) We choose to use this assay as a way to investigate if the activity of GDF15 could be inhibited by various agents. […] GDF15-induced formation of RAB11/QRFPR endosomes is inhibited by QRFPR peptides (FIG. 9A-D). Equal amounts of a mastermix of GDF15 was aliquoted and pre-incubated in PBS with the various receptor fragment before addition to cells. Sequentially, the cells were treated with either PBS, GDF15 or GDF15/QRFPR-derived peptide mixes.

QRFPR [3] = experiment: In situ detection of QRFPR at the cell surface after GDF15 with or without peptide (FIG. 10A-C); type: cell-based; conditions: cells exposed to GDF15 + synthetic peptide
Excerpt: as §1
FIGS. 10A-10C confirm that GDF15 reduces the level of QRFPR at the cell surface, and that this reduction may be reversed by a peptide derived from extracellular loop 3 (extracellular domain 4) of QRFPR.

QRFPR [4] = experiment: In situ PLA detection of RAB11-QRFPR double positive endosomes in MCF7 cells; type: cell-based; conditions: MCF7 cells; GDF15 pre-incubated with receptor fragment; FIG. 9A-D
Excerpt: The RAB11 protein is a marker for recycling endosomes back to the cell surface, and the RAB11 pathway is also involved in exosome assembly (Savina et al., 2005; Savina et al., 2002). RAB11 was thus thought to be a likely candidate to be involved in QRFPR reduction on the cell surface induced by GDF15
An in situ PLA assay was developed to detect the proximity of RAB11 and QRFPR. In the absence of GDF15, only a low signal is observed (FIGS. 5A and 5C).
as §2

[5] = target: T3, Growth and differentiation factor 15 …; experiment: Fc-fusion pull-down, said to agree with the array results
Method: 20 μg Fc fusion protein constructs were incubated with 0.5 μg GDF15 and protein-G bead with mixing for 6 hrs in +4 C in PBST+1% BSAs. Wash 6 times: 3 times PBST, change tubes, 2 washes PBST+220 mM NaCl. Last wash PBS. The beads were collected using a table-top centrifuge set at 500 g for 5 minutes between washes. Detection The material was loaded on a 4-12% gradient gel, run at 100 volt, transferred to PVDF membrane using a Turbo Tank blot system, blocked by PBS with 3% BSA 1 hr RT, and incubated with RD systems a monoclonal anti-GDF15 antibody overnight. A secondary antibody: mouse HRP 1:2000 was used for detection. The size of band was estimated by comparing with a seeblue2 protein ladder marker run in an adjacent lane.

[6] = target: B3; experiment: in situ PLA on tissue micro array
[7] = target: T4, Cleft Lip and Palate Transmembrane …; experiment: in situ PLA on tissue micro array
ACTRIIB = target: T5, ACTRIIB (UniProt Q13705 19-512, limits assumed); experiment: in situ PLA on serum-starved MCF7 cells
T5 construct: whole, on cells; also called activin type II receptor B
T5 sequence (Q13705 19-512 limits assumed): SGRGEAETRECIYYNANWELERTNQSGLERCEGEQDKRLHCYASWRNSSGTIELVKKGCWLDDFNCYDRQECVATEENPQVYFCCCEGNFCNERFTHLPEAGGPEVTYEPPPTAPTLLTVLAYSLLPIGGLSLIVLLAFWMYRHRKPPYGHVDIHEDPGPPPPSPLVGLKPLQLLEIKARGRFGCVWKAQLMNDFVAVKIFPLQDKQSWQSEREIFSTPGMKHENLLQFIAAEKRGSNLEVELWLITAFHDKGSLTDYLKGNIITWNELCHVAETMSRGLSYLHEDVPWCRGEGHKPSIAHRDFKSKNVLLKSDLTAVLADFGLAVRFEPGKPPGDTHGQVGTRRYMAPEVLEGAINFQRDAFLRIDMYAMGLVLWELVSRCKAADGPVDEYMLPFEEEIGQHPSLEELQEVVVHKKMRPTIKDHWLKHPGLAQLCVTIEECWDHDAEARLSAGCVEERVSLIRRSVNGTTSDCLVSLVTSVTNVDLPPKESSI
Method: MCF7 cells were stimulated with GDF15 (GDF15 from isolated mammalian source or recombinant derived from E. coli purchased from Abcam and Biovision). An assay was developed for monitoring the activity of GDF15 and to investigate the dynamics of receptor(s) such as QRFPR modulation by the ligand.
Serum-starved MCF7 cells were treated with GDF15, and an in situ PLA detection assay was developed to detect the interaction between ACTRIIB and QRFPR using antibodies from two different species, thus allowing the use of Duolink secondary detection reagents. The presence of the QRFPR-ACTRIIB complex was detected in the absence of GDF15 (see FIG. 3A, indicated by arrows).

- GDF15 binding to GST-fusion protein (GST-pulldown) (GDF15): Increased binding
Molecule: EIKYDFLYEKEHICCLEEWTS (listed as Homo sapiens) [SEQ ID NO:7]

- P518 induced ACTRIIB levels (QRFPR [1]): not affected
- P518 induced ACTRIIB levels (QRFPR [1]; listed as QRFPR receptor fragment): slight increase of ACTRIIB
Molecule: GEKEYDDVTIK [synthetic peptide derived from extracellular domain 4 of QRFPR]
- level of QRFPR detected at the cell surface (QRFPR [2]): restore the level of QRFPR detected at the cell surface to the same level as control cells
- QRFPR at the cell surface (QRFPR [3]): reversed the removal of QRFPR from the cell surface
- GDF15-induced RAB11-QRFPR double positive endosomes (QRFPR [4]): substantially reduced

- GDF15 binding to GST-fusion protein (GST-pulldown) (GDF15): Increased binding
Molecule: ALFWEQHDLVYGDWTS (listed as Homo sapiens) [SEQ ID NO:18]

Molecule: B1
- binding result [5]: no binding

Molecule: B2
- binding result [6]: binds
- binding result [7]: binds

Molecule: B3
- binding result (ACTRIIB): binds
